Results taken from publication PMC9475456, “DDX56 transcriptionally activates MIST1 to facilitate tumorigenesis of HCC through PTEN-AKT signaling”.

Molecular target: T1, DDX56 (His-DDX56) (human, UniProt Q9NY93 1-547)
T1 sequence: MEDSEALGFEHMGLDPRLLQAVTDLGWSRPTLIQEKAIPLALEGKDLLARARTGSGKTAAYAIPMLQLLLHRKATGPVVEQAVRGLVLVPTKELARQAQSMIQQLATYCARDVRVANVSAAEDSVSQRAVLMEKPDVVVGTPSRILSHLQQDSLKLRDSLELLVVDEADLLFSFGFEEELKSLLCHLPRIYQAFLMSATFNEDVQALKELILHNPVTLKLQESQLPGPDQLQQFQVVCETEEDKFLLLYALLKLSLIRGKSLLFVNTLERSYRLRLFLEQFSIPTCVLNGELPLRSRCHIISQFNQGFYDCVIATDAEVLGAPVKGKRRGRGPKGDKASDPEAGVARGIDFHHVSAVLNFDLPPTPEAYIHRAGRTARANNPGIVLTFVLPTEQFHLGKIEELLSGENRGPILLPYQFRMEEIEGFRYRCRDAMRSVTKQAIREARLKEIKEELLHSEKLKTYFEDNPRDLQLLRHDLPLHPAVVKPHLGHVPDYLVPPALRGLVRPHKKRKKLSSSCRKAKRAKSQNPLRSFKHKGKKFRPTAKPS
Assay: EMSA; 5 mM Mg2+; poly(dI-dC); supershifted by DDX56 antibody; LightShift EMSA kit, 20 uL: 2 uL 10x binding buffer, 1 uL 50% glycerol, 1 uL 100 mM MgCl2, 1 ug/uL poly(dI-dC), 1 uL 1% NP-40, 2 ug protein; supershift at room
Details: protein: commercial; tags: N-terminal His; label: 5' biotin; blunt

B1: MIST1 promoter -160 to -117 (dsDNA)
DNA 1: GCCACCTGGTCCGGGAGCCCCAGGCGCCGGCCTCCCGCCCGCCC
DNA 2: GGGCGGGCGGGAGGCCGGCGCCTGGGGCTCCCGGACCAGGTGGC
  binding result: binds
